Consider 34 molecules from PMC12416549 (2024).

Sequences and labels used below:
T1: TNFR1 (Homo sapiens, UniProt P19438)
T1 chain: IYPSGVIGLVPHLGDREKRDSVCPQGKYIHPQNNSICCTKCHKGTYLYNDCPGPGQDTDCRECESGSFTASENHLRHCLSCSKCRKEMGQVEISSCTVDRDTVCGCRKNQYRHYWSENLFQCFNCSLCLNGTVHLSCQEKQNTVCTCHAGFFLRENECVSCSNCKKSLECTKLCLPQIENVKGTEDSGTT

B1: A76W (designed binder)
chain: MTLQELLREEALRRAEAEAFRYALELLAEKFPEQKEYLLDLAEEIESQIRSLSGVDVEDVRKFLDKEWAWVKELLWEHPAELAEVEAARAARLAELRAEVEAKVAA
B2: Q34G (designed binder)
chain: MTLQELLREEALRRAEAEAFRYALELLAEKFPEGKEYLLDLAEEIESQIRSLSGVDVEDVRKFLDKEWAWVKELLAEHPAELAEVEAARAARLAELRAEVEAKVAA
B3: R13V (designed binder)
chain: MTLQELLREEALVRAEAEAFRYALELLAEKFPEQKEYLLDLAEEIESQIRSLSGVDVEDVRKFLDKEWAWVKELLAEHPAELAEVEAARAARLAELRAEVEAKVAA
B4: L39Q (designed binder)
chain: MTLQELLREEALRRAEAEAFRYALELLAEKFPEQKEYLQDLAEEIESQIRSLSGVDVEDVRKFLDKEWAWVKELLAEHPAELAEVEAARAARLAELRAEVEAKVAA
B5: A83W (designed binder)
chain: MTLQELLREEALRRAEAEAFRYALELLAEKFPEQKEYLLDLAEEIESQIRSLSGVDVEDVRKFLDKEWAWVKELLAEHPAELWEVEAARAARLAELRAEVEAKVAA
B6: V57W (designed binder)
chain: MTLQELLREEALRRAEAEAFRYALELLAEKFPEQKEYLLDLAEEIESQIRSLSGVDWEDVRKFLDKEWAWVKELLAEHPAELAEVEAARAARLAELRAEVEAKVAA
B7: R61D (designed binder)
chain: MTLQELLREEALRRAEAEAFRYALELLAEKFPEQKEYLLDLAEEIESQIRSLSGVDVEDVDKFLDKEWAWVKELLAEHPAELAEVEAARAARLAELRAEVEAKVAA
B8: D56R (designed binder)
chain: MTLQELLREEALRRAEAEAFRYALELLAEKFPEQKEYLLDLAEEIESQIRSLSGVRVEDVRKFLDKEWAWVKELLAEHPAELAEVEAARAARLAELRAEVEAKVAA
B9: A106N (designed binder)
chain: MTLQELLREEALRRAEAEAFRYALELLAEKFPEQKEYLLDLAEEIESQIRSLSGVDVEDVRKFLDKEWAWVKELLAEHPAELAEVEAARAARLAELRAEVEAKVAN
B10: A91M (designed binder)
chain: MTLQELLREEALRRAEAEAFRYALELLAEKFPEQKEYLLDLAEEIESQIRSLSGVDVEDVRKFLDKEWAWVKELLAEHPAELAEVEAARAMRLAELRAEVEAKVAA
B11: V60C (designed binder)
chain: MTLQELLREEALRRAEAEAFRYALELLAEKFPEQKEYLLDLAEEIESQIRSLSGVDVEDCRKFLDKEWAWVKELLAEHPAELAEVEAARAARLAELRAEVEAKVAA
B12: E77L (designed binder)
chain: MTLQELLREEALRRAEAEAFRYALELLAEKFPEQKEYLLDLAEEIESQIRSLSGVDVEDVRKFLDKEWAWVKELLALHPAELAEVEAARAARLAELRAEVEAKVAA
B13: R13T (designed binder)
chain: MTLQELLREEALTRAEAEAFRYALELLAEKFPEQKEYLLDLAEEIESQIRSLSGVDVEDVRKFLDKEWAWVKELLAEHPAELAEVEAARAARLAELRAEVEAKVAA
B14: H78D (designed binder)
chain: MTLQELLREEALRRAEAEAFRYALELLAEKFPEQKEYLLDLAEEIESQIRSLSGVDVEDVRKFLDKEWAWVKELLAEDPAELAEVEAARAARLAELRAEVEAKVAA
B15: V57M (designed binder)
chain: MTLQELLREEALRRAEAEAFRYALELLAEKFPEQKEYLLDLAEEIESQIRSLSGVDMEDVRKFLDKEWAWVKELLAEHPAELAEVEAARAARLAELRAEVEAKVAA
B16: L3C (designed binder)
chain: MTCQELLREEALRRAEAEAFRYALELLAEKFPEQKEYLLDLAEEIESQIRSLSGVDVEDVRKFLDKEWAWVKELLAEHPAELAEVEAARAARLAELRAEVEAKVAA
B17: K72V (designed binder)
chain: MTLQELLREEALRRAEAEAFRYALELLAEKFPEQKEYLLDLAEEIESQIRSLSGVDVEDVRKFLDKEWAWVVELLAEHPAELAEVEAARAARLAELRAEVEAKVAA
B18: D56M (designed binder)
chain: MTLQELLREEALRRAEAEAFRYALELLAEKFPEQKEYLLDLAEEIESQIRSLSGVMVEDVRKFLDKEWAWVKELLAEHPAELAEVEAARAARLAELRAEVEAKVAA
B19: E33A (designed binder)
chain: MTLQELLREEALRRAEAEAFRYALELLAEKFPAQKEYLLDLAEEIESQIRSLSGVDVEDVRKFLDKEWAWVKELLAEHPAELAEVEAARAARLAELRAEVEAKVAA
B20: A11K (designed binder)
chain: MTLQELLREEKLRRAEAEAFRYALELLAEKFPEQKEYLLDLAEEIESQIRSLSGVDVEDVRKFLDKEWAWVKELLAEHPAELAEVEAARAARLAELRAEVEAKVAA
B21: L6R (designed binder)
chain: MTLQERLREEALRRAEAEAFRYALELLAEKFPEQKEYLLDLAEEIESQIRSLSGVDVEDVRKFLDKEWAWVKELLAEHPAELAEVEAARAARLAELRAEVEAKVAA
B22: L93M (designed binder)
chain: MTLQELLREEALRRAEAEAFRYALELLAEKFPEQKEYLLDLAEEIESQIRSLSGVDVEDVRKFLDKEWAWVKELLAEHPAELAEVEAARAARMAELRAEVEAKVAA
B23: A76S (designed binder)
chain: MTLQELLREEALRRAEAEAFRYALELLAEKFPEQKEYLLDLAEEIESQIRSLSGVDVEDVRKFLDKEWAWVKELLSEHPAELAEVEAARAARLAELRAEVEAKVAA
B24: V57G (designed binder)
chain: MTLQELLREEALRRAEAEAFRYALELLAEKFPEQKEYLLDLAEEIESQIRSLSGVDGEDVRKFLDKEWAWVKELLAEHPAELAEVEAARAARLAELRAEVEAKVAA
B25: A87Q (designed binder)
chain: MTLQELLREEALRRAEAEAFRYALELLAEKFPEQKEYLLDLAEEIESQIRSLSGVDVEDVRKFLDKEWAWVKELLAEHPAELAEVEQARAARLAELRAEVEAKVAA
B26: I45Y (designed binder)
chain: MTLQELLREEALRRAEAEAFRYALELLAEKFPEQKEYLLDLAEEYESQIRSLSGVDVEDVRKFLDKEWAWVKELLAEHPAELAEVEAARAARLAELRAEVEAKVAA
B27: E84T (designed binder)
chain: MTLQELLREEALRRAEAEAFRYALELLAEKFPEQKEYLLDLAEEIESQIRSLSGVDVEDVRKFLDKEWAWVKELLAEHPAELATVEAARAARLAELRAEVEAKVAA
B28: T2L (designed binder)
chain: MLLQELLREEALRRAEAEAFRYALELLAEKFPEQKEYLLDLAEEIESQIRSLSGVDVEDVRKFLDKEWAWVKELLAEHPAELAEVEAARAARLAELRAEVEAKVAA
B29: V104W (designed binder)
chain: MTLQELLREEALRRAEAEAFRYALELLAEKFPEQKEYLLDLAEEIESQIRSLSGVDVEDVRKFLDKEWAWVKELLAEHPAELAEVEAARAARLAELRAEVEAKWAA
B30: D65Y (designed binder)
chain: MTLQELLREEALRRAEAEAFRYALELLAEKFPEQKEYLLDLAEEIESQIRSLSGVDVEDVRKFLYKEWAWVKELLAEHPAELAEVEAARAARLAELRAEVEAKVAA
B31: R50W (designed binder)
chain: MTLQELLREEALRRAEAEAFRYALELLAEKFPEQKEYLLDLAEEIESQIWSLSGVDVEDVRKFLDKEWAWVKELLAEHPAELAEVEAARAARLAELRAEVEAKVAA
B32: A102C (designed binder)
chain: MTLQELLREEALRRAEAEAFRYALELLAEKFPEQKEYLLDLAEEIESQIRSLSGVDVEDVRKFLDKEWAWVKELLAEHPAELAEVEAARAARLAELRAEVECKVAA
B33: E18M (designed binder)
chain: MTLQELLREEALRRAEAMAFRYALELLAEKFPEQKEYLLDLAEEIESQIRSLSGVDVEDVRKFLDKEWAWVKELLAEHPAELAEVEAARAARLAELRAEVEAKVAA
B34: E95M (designed binder)
chain: MTLQELLREEALRRAEAEAFRYALELLAEKFPEQKEYLLDLAEEIESQIRSLSGVDVEDVRKFLDKEWAWVKELLAEHPAELAEVEAARAARLAMLRAEVEAKVAA

The test addresses T1, TNFR1. The experiment in a line: yeast display SC50.
Turning to B1, the “apparent Kd (screen)” value was 0.446 nM.
For the molecule B2, the “apparent Kd (screen)” value was found to be 0.593 nM.
Regarding B3, the “apparent Kd (screen)” value worked out at 0.335 nM.
B4: the “apparent Kd (screen)” value was 1.27 nM.
As to B5, the “apparent Kd (screen)” value turned out to be 0.49 nM.
Consider B6, for which the “apparent Kd (screen)” value is 1.27 nM.
Consider B7, for which the “apparent Kd (screen)” value came to 11.4 nM.
As for B8, the figure is 2.25 nM.
On to B9, for which the “apparent Kd (screen)” value is 1.69 nM.
As for B10, the figure is 0.869 nM; as for B11, 0.79 nM.
As to B12, the “apparent Kd (screen)” value came out at 0.446 nM.
As for B13, the figure is 0.335 nM.
Take B14: the “apparent Kd (screen)” value came out at 0.593 nM.
B15: the “apparent Kd (screen)” value amounted to 2.48 nM.
Turning to B16, the “apparent Kd (screen)” value worked out at 12.5 nM.
For the molecule B17, the “apparent Kd (screen)” value was found to be 0.593 nM.
With B18, the “apparent Kd (screen)” value is 0.956 nM.
Regarding B19, the “apparent Kd (screen)” value turned out to be 0.208 nM.
As for B20, the “apparent Kd (screen)” value was 0.539 nM.
For B21, the “apparent Kd (screen)” value was 12.5 nM.
As for B22, the figure is 0.539 nM.
As for B23, the figure is 0.49 nM.
As for B24, the “apparent Kd (screen)” value is 1.86 nM.
For the molecule B25, the “apparent Kd (screen)” value turned out to be 0.653 nM.
On to B26, for which the “apparent Kd (screen)” value was 1.86 nM.
For B27, the “apparent Kd (screen)” value worked out at 0.49 nM.
As to B28, the “apparent Kd (screen)” value worked out at 0.49 nM.
For B29, the “apparent Kd (screen)” value was 0.869 nM.
For the molecule B30, the “apparent Kd (screen)” value was determined as 0.653 nM.
Turning to B31, the “apparent Kd (screen)” value was 2.73 nM.
B32: the “apparent Kd (screen)” value was 0.539 nM.
B33: the “apparent Kd (screen)” value came out at 0.49 nM.
On to B34, for which the “apparent Kd (screen)” value worked out at 0.446 nM.
